In assay [1] the target is recombinant soluble human FcRn with β2-microglobulin (sFcRn) (human) (UniProt P55899). As to the kind of experiment: SPR; pH 6.0.
For assay [2] the target is unchanged. As to the kind of experiment: SPR; pH 7.4. (In general: SPR reads the build-up and loss of mass on a sensor chip optically.)

The Kd is the constant that tells how readily two partners part at equilibrium.

Sequence of UniProt P55899 (P55899 24-297, chain 1 of 2): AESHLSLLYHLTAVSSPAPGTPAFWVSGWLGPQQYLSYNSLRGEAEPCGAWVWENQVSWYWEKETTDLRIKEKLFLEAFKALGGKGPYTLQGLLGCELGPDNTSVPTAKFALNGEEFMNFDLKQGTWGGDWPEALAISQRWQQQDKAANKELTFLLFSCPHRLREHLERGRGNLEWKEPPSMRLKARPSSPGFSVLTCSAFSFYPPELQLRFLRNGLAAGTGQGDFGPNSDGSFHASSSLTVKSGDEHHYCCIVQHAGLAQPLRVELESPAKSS
Sequence of UniProt P55899 (partner, as listed by the source, chain 2 of 2): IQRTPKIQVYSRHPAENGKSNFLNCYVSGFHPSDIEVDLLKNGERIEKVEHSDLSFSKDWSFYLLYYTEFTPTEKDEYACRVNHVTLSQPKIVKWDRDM

Regarding “anti-biotin IgG1-MST-HN (from UniProt P01857)”, the dissociation constant (Kd) in assay [1] turned out to be 8 nM; in assay [2], 893 nM.

In the case of “anti-biotin IgG1-WT (from UniProt P01857)”, in assay [1], the Kd was 59.3 nM.

(Values after paper PMC8741920.)
